Experimental data taken from patent US20200199241A1 (Chugai, published 2020).
Numbering of substitutions follows the chain as printed.

B1: IgG1-F1271 (antibody)
heavy: QVQLQESGPGLVKPSETLSLTCAVSGHSISHDHAWSWVRQPPGEGLEWIGFISYSGITNYNPSLQGRVTISRDNSKNTLYLQMNSLRAEDTAVYYCARSLARTTAMDYWGEGTLVTVSSASTKGPSVFPLAPSSKSTSGGTAALGCLVKDYFPEPVTVSWNSGALTSGVHTFPAVLQSSGLYSLSSVVTVPSSSLGTQTYICNVNHKPSNTKVDKKVEPKSCDKTHTCPPCPAPELRGGPKVFLFPPKPKDTLYIARTPEVTCVVVDVSHEDPEVKFNWYVDGVEVHNAKTKPREEQYNSTYRVVSVLTVLHQDWLNGKEYKCKVSNKALPAPIEKTISKAKGQPREPQVYTLPPSRDELTKNQVSLTCLVKGFYPSDIAVEWESNGQPENNYKTTPPVLDSDGSFFLYSKLTVDKSRWQQGNVFSCSVMHEALDYHVTRKELSLSP
light: not shown
notes: EU numbering; copies: 2 + 2
B2: IgG1-F1275 (antibody)
heavy: B1 heavy with A256S, T258Q, R440K, E442D
light: not shown
notes: EU numbering; copies: 2 + 2
B3: IgG1-F1306 (antibody)
heavy: B1 heavy with A256S, R440K
light: not shown
notes: EU numbering; copies: 2 + 2
B4: IgG1-F1313 (antibody)
heavy: B1 heavy with A256S, R440A, E442A
light: not shown
notes: EU numbering; copies: 2 + 2
B5: IgG1-F1276 (antibody)
heavy: B1 heavy with A256S, T258A, D435H, R440K, E442D
light: not shown
notes: EU numbering; copies: 2 + 2
B6: IgG1-F1310 (antibody)
heavy: B1 heavy with A256S, D435H, R440L, E442L
light: not shown
notes: EU numbering; copies: 2 + 2
B7: IgG1-F1323 (antibody)
heavy: B1 heavy with A256T, R440K
light: not shown
notes: EU numbering; copies: 2 + 2
B8: IgG1-F1330 (antibody)
heavy: B1 heavy with G238R, A256S, T258E, D435H
light: not shown
notes: EU numbering; copies: 2 + 2
B9: IgG1-F1329 (antibody)
heavy: B1 heavy with G238R, A256T, D435H
light: not shown
notes: EU numbering; copies: 2 + 2
B10: IgG1-F1293 (antibody)
heavy: B1 heavy with A256S, T258E, D435H, V438Y
light: not shown
notes: EU numbering; copies: 2 + 2
B11: IgG1-F1303 (antibody)
heavy: B1 heavy with A256S, T258E, V438T, R440K, E442D
light: not shown
notes: EU numbering; copies: 2 + 2
B12: IgG1-F1292 (antibody)
heavy: B1 heavy with Y254M, A256S, Y436W
light: not shown
notes: EU numbering; copies: 2 + 2
B13: IgG1-F1328 (antibody)
heavy: B1 heavy with G238R, A256S, D435H
light: not shown
notes: EU numbering; copies: 2 + 2
B14: IgG1-F1282 (antibody)
heavy: B1 heavy with A256S, T258N, D435H, R440K, E442D
light: not shown
notes: EU numbering; copies: 2 + 2
B15: IgG1-F1290 (antibody)
heavy: B1 heavy with A256S, T258E, R440K, E442D
light: not shown
notes: EU numbering; copies: 2 + 2
B16: IgG1-F1304 (antibody)
heavy: B1 heavy with A256S, T258E, V438F, R440K, E442D
light: not shown
notes: EU numbering; copies: 2 + 2
B17: IgG1-F1281 (antibody)
heavy: B1 heavy with A256S, T258G, R440K, E442D
light: not shown
notes: EU numbering; copies: 2 + 2
B18: IgG1-F1280 (antibody)
heavy: B1 heavy with A256S, T258G
light: not shown
notes: EU numbering; copies: 2 + 2
B19: IgG1-F1285 (antibody)
heavy: B1 heavy with A256T, D435H, R440K, E442D
light: not shown
notes: EU numbering; copies: 2 + 2
B20: IgG1-F1326 (antibody)
heavy: QVQLQESGPGLVKPSETLSLTCAVSGHSISHDHAWSWVRQPPGEGLEWIGFISYSGITNYNPSLQGRVTISRDNSKNTLYLQMNSLRAEDTAVYYCARSLARTTAMDYWGEGTLVTVSSASTKGPSVFPLAPSSKSTSGGTAALGCLVKDYFPEPVTVSWNSGALTSGVHTFPAVLQSSGLYSLSSVVTVPSSSLGTQTYICNVNHKPSNTKVDKKVEPKSCDKTHTCPPCPAPEAAGGPSVFLFPPKPKDVLYISRTPEVTCVVVDVSHEDPEVKFNWYVDGVEVHNAKTKPREEQYNSTYRVVSVLQPLHADWLNGKEYKCKVSNKALPAPIEKTISKAKGQPREPQVYTLPPSRDELTKNQVSLTCLVKGFYPSDIAVEWESNGQPENNYKTTPPVLDSDGSFFLYSKLTVDKSRWQQGNVFSCSVMHEALHYHVTQKSLSLSP
light: not shown
notes: copies: 2 + 2
B21: IgG1-F1307 (antibody)
heavy: B1 heavy with A256S, V424A, S426A, D435H, R440Q, E442S
light: not shown
notes: EU numbering; copies: 2 + 2
B22: IgG1-F1298 (antibody)
heavy: B1 heavy with A256S, T258E, V438F
light: not shown
notes: EU numbering; copies: 2 + 2
B23: IgG1-F1278 (antibody)
heavy: B1 heavy with A256S, T258A, R440K, E442D
light: not shown
notes: EU numbering; copies: 2 + 2
B24: IgG1-F1311 (antibody)
heavy: B1 heavy with A256S, V424A, S426A, R440Q, E442S
light: not shown
notes: EU numbering; copies: 2 + 2
B25: IgG1-F1308 (antibody)
heavy: B1 heavy with A256S, V424L, S426L, D435H, R440Q, E442S
light: not shown
notes: EU numbering; copies: 2 + 2
B26: IgG1-F1305 (antibody)
heavy: B1 heavy with A256S, E442D
light: not shown
notes: EU numbering; copies: 2 + 2
B27: IgG1-F1297 (antibody)
heavy: B1 heavy with A256S, T258E, V438T
light: not shown
notes: EU numbering; copies: 2 + 2
B28: IgG1-F1273 (antibody)
heavy: B1 heavy with A256S, T258Q, D435H, R440K, E442D
light: not shown
notes: EU numbering; copies: 2 + 2
B29: IgG1-F1321 (antibody)
heavy: B1 heavy with A256T, D435H, R440K
light: not shown
notes: EU numbering; copies: 2 + 2
B30: IgG1-F1309 (antibody)
heavy: B1 heavy with A256S, D435H, R440A, E442A
light: not shown
notes: EU numbering; copies: 2 + 2
B31: IgG1-F1287 (antibody)
heavy: B1 heavy with A256T, R440K, E442D
light: not shown
notes: EU numbering; copies: 2 + 2
B32: IgG1-F1300 (antibody)
heavy: B1 heavy with A256S, T258E, D435H, V438T, R440K, E442D
light: not shown
notes: EU numbering; copies: 2 + 2
B33: IgG1-F1294 (antibody)
heavy: B1 heavy with A256S, T258E, D435H, V438T
light: not shown
notes: EU numbering; copies: 2 + 2
B34: IgG1-F1301 (antibody)
heavy: B1 heavy with A256S, T258E, D435H, V438F, R440K, E442D
light: not shown
notes: EU numbering; copies: 2 + 2
B35: IgG1-F1284 (antibody)
heavy: B1 heavy with A256S, T258N, R440K, E442D
light: not shown
notes: EU numbering; copies: 2 + 2
B36: IgG1-F1299 (antibody)
heavy: B1 heavy with A256S, T258E, D435H, V438Y, R440K, E442D
light: not shown
notes: EU numbering; copies: 2 + 2
B37: IgG1-F1274 (antibody)
heavy: B1 heavy with A256S, T258Q
light: not shown
notes: EU numbering; copies: 2 + 2
B38: IgG1-F1302 (antibody)
heavy: B1 heavy with A256S, T258E, V438Y, R440K, E442D
light: not shown
notes: EU numbering; copies: 2 + 2
B39: IgG1-F1296 (antibody)
heavy: B1 heavy with A256S, T258E, V438Y
light: not shown
notes: EU numbering; copies: 2 + 2
B40: IgG1-F1327 (antibody)
heavy: B20 heavy with N299A
light: not shown
notes: copies: 2 + 2
B41: IgG1-F1314 (antibody)
heavy: B1 heavy with A256S, R440L, E442L
light: not shown
notes: EU numbering; copies: 2 + 2
B42: IgG1-F1277 (antibody)
heavy: B1 heavy with A256S, T258A
light: not shown
notes: EU numbering; copies: 2 + 2
B43: IgG1-F1279 (antibody)
heavy: B1 heavy with A256S, T258G, D435H, R440K, E442D
light: not shown
notes: EU numbering; copies: 2 + 2
B44: IgG1-F1289 (antibody)
heavy: B1 heavy with A256S, T258E
light: not shown
notes: EU numbering; copies: 2 + 2
B45: IgG1-F1322 (antibody)
heavy: B1 heavy with A256T, E442D
light: not shown
notes: EU numbering; copies: 2 + 2
B46: IgG1-F1320 (antibody)
heavy: B1 heavy with A256T, D435H, E442D
light: not shown
notes: EU numbering; copies: 2 + 2
B47: IgG1-F1295 (antibody)
heavy: B1 heavy with A256S, T258E, D435H, V438F
light: not shown
notes: EU numbering; copies: 2 + 2
B48: IgG1-F1312 (antibody)
heavy: B1 heavy with A256S, V424L, S426L, R440Q, E442S
light: not shown
notes: EU numbering; copies: 2 + 2
B49: IgG1-F1283 (antibody)
heavy: B1 heavy with A256S, T258N
light: not shown
notes: EU numbering; copies: 2 + 2
B50: IgG1-F1319 (antibody)
heavy: B20 heavy with A236L, A237L, V252T, Q309T, P310V, A313Q, L330Y, V438Y
light: not shown
notes: EU numbering; copies: 2 + 2
B51: IgG1-F1291 (antibody)
heavy: B1 heavy with A256S, R440Q, E442S
light: not shown
notes: EU numbering; copies: 2 + 2
B52: IgG1-F1286 (antibody)
heavy: B1 heavy with A256T
light: not shown
notes: EU numbering; copies: 2 + 2

These binders were tested against T1, soluble human FcRn complexed with β2-microglobulin (human, UniProt P61769 21-119, limits assumed) (assay: Biacore SPR, pH 7.0;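 also: test antibodies captured on a Protein L chip with human FcRn flowed over as analyte, KD obtained as the ratio of dissociation to association rate constants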).
T1 construct: also called hFcRn

Row | Kd | Binder
1 | 205 nM | B1
2 | 209 nM | B2
3 | 192 nM | B3
4 | 177 nM | B4
5 | 102 nM | B5
6 | 228 nM | B6
7 | 149 nM | B7
8 | 103 nM | B8
9 | 129 nM | B9
10 | 161 nM | B10
11 | 210 nM | B11
12 | 424 nM | B12
13 | 152 nM | B13
14 | 76.9 nM | B14
15 | 111 nM | B15
16 | 124 nM | B16
17 | 174 nM | B17
18 | 209 nM | B18
19 | 93.6 nM | B19
20 | 10.9 nM | B20
21 | 144 nM | B21
22 | 147 nM | B22
23 | 140 nM | B23
24 | 369 nM | B24
25 | 206 nM | B25
26 | 205 nM | B26

Row | Kd | Binder
27 | 250 nM | B27
28 | 153 nM | B28
29 | 103 nM | B29
30 | 126 nM | B30
31 | 150 nM | B31
32 | 163 nM | B32
33 | 200 nM | B33
34 | 83 nM | B34
35 | 112 nM | B35
36 | 150 nM | B36
37 | 248 nM | B37
38 | 215 nM | B38
39 | 227 nM | B39
40 | 14.1 nM | B40
41 | 227 nM | B41
42 | 169 nM | B42
43 | 123 nM | B43
44 | 333 nM | B44
45 | 160 nM | B45
46 | 122 nM | B46
47 | 98.4 nM | B47
48 | 179 nM | B48
49 | 134 nM | B49
50 | 267 nM | B50
51 | 151 nM | B51
52 | 157 nM | B52
